Assay results taken from patent publication US20030235860A1, “Interactions between AR, ER, TR2, and TR4” (priority 1999, published 2003).
Each block holds one binder with its values, some of them ahead of it.

How the values were obtained:
[1] = biological target: T1, estrogen receptor (ER), full-length (human, UniProt P03372 1-595); assay: GST pull-down, GST-TR2 fragment on beads, [35S]-ER
T1 construct: 35S-labeled when in vitro translated for the pull-downs; endogenous in MCF7 cells for the co-immunoprecipitation; also called ERα; pSG5-ER
T1 sequence: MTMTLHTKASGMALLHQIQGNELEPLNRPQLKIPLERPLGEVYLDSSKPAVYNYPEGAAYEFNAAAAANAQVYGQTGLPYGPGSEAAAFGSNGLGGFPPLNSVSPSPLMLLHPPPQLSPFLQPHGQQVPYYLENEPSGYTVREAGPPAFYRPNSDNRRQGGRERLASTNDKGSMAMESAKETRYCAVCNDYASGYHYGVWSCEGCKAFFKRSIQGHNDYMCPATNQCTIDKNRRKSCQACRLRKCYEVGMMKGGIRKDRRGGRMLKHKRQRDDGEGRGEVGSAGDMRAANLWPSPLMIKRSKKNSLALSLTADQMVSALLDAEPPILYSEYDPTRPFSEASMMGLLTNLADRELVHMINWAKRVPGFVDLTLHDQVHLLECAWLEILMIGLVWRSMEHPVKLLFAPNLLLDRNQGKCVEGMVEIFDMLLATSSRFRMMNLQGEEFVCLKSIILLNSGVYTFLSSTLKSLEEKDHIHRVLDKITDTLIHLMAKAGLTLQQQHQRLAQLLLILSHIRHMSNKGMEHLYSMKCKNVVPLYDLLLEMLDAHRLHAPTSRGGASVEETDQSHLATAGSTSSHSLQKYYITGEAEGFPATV

[2] = biological target: T2, Estrogen receptor alpha (ER) (Homo sapiens, UniProt P03372 SEQ:1-595); assay: EMSA; with or without E2; supershifted by C-314; competed by 100-fold cold ERE; decreased by added TR2; settings: chain copies: 2; label: 32P
T2 chain: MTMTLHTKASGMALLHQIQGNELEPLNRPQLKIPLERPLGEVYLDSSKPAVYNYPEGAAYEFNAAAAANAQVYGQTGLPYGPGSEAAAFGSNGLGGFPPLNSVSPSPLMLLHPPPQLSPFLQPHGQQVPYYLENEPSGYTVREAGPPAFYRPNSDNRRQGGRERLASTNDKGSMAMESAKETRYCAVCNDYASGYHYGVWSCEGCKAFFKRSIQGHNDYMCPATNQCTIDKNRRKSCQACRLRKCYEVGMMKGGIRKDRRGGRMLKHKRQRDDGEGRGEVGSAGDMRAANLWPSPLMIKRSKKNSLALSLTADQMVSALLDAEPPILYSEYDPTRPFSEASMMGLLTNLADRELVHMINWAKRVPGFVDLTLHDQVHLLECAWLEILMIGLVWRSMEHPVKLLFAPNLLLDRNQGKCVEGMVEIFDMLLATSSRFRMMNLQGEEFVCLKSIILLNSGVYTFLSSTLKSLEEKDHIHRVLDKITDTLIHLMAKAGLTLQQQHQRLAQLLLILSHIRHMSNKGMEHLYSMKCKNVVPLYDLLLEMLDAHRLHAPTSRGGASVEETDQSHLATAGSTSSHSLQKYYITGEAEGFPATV

[3] = biological target: T3, TR2 orphan receptor (full length, 603 aa) (UniProt P13056 SEQ:1-603); assay: EMSA; no TR2-ERE band; settings: chain copies: 2; label: 32P
T3 chain: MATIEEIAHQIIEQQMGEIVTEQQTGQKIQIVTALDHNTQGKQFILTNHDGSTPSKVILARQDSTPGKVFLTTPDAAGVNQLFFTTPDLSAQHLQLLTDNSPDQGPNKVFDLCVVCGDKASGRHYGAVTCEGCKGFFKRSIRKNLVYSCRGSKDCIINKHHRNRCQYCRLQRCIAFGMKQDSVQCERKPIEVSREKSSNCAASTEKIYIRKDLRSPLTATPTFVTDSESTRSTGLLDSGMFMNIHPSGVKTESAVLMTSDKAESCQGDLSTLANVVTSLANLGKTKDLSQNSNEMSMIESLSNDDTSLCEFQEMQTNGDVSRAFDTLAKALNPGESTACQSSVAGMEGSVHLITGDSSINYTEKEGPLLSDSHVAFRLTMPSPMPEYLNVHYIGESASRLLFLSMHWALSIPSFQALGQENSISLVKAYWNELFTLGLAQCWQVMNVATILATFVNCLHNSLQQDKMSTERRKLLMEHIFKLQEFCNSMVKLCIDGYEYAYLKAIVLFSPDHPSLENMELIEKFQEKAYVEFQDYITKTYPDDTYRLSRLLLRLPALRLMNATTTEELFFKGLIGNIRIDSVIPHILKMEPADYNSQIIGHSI

GST-TR4 fusion protein = biological target: T4, GST-TR4 fusion protein (human, UniProt P49116 1-596); assay: GST pull-down, GST-TR4 on beads, 35S-labeled RXRα
T4 construct: also called pGEX-3X-TR4
T4 sequence: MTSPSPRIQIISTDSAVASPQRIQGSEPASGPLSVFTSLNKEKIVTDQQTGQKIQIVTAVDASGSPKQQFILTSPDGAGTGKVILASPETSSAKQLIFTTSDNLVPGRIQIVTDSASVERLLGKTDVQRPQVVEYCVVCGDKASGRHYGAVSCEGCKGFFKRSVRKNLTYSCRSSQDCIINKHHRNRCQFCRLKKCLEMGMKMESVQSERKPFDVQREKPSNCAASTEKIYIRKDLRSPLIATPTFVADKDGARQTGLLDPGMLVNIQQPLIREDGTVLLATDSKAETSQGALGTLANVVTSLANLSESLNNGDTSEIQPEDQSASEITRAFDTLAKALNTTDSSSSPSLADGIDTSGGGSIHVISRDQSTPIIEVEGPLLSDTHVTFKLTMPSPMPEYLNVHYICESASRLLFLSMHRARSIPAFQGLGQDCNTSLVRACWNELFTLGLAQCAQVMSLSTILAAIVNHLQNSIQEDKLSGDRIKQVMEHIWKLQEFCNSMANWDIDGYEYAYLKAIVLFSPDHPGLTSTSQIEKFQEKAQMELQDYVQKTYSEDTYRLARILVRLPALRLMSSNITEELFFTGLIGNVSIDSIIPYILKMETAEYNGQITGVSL

- binding result [1]: no binding
B1: GST-TR2-#1 (N-terminus, aa 1-112 of TR2) (other)
chain: MATIEEIAHQIIEQQMGEIVTEQQTGQKIQIVTALDHNTQGKQFILTNHDGSTPSKVILARQDSTPGKVFLTTPDAAGVNQLFFTTPDLSAQHLQLLTDNSPDQGPNKVFDL
notes: also called pGEX-KG-TR2-#1; not shown: GST carrier of pGEX-KG and its linker

B2: complement C3 ERE (dsDNA)
DNA 1: AGGTGGCCCTGACCC
DNA 2: GGGTCAGGGCCACCT
- binding result [2]: binds
- binding result [3]: no binding

- binding result (GST-TR4 fusion protein): no binding
B3: retinoid X receptor alpha (RXRα) (receptor, UniProt P19793 1-462, looked up)
chain: MDTKHFLPLDFSTQVNSSLTSPTGRGSMAAPSLHPSLGPGIGSPGQLHSPISTLSSPINGMGPPFSVISSPMGPHSMSVPTTPTLGFSTGSPQLSSPMNPVSSSEDIKPPLGLNGVLKVPAHPSGNMASFTKHICAICGDRSSGKHYGVYSCEGCKGFFKRTVRKDLTYTCRDNKDCLIDKRQRNRCQYCRYQKCLAMGMKREAVQEERQRGKDRNENEVESTSSANEDMPVERILEAELAVEPKTETYVEANMGLNPSSPNDPVTNICQAADKQLFTLVEWAKRIPHFSELPLDDQVILLRAGWNELLIASFSHRSIAVKDGILLATGLHVHRNSAHSAGVGAIFDRVLTELVSKMRDMQMDKTELGCLRAIVLFNPDSKGLSNPAEVEALREKVYASLEAYCKHKYPEQPGRFAKLLLRLPALRSIGLKCLEHLFFFKLIGDTPIDTFLMEMLEAPHQMT
notes: 35S-methionine-labeled, in vitro translated; also called RXRa; RXRA
